Experiments:
[1] = test system: mouse peritoneal mast cells; assay: in vitro transwell chemotaxis, peritoneal mast cells; format: cell-based; conditions: SSChigh CD11b- c-kit+ cells
Procedure: (§1) For migration experiments using cell lines, 2.5×10^5 cells/100 μl chemotaxis media (RPMI+10% fetal calf serum) were added to the top wells of 5-um pore transwell inserts (Costar, Corning, N.Y., USA), and test samples in 600 μl media were added to the bottom wells. After incubating the transwell plates for 1.5 hours at 37° C., the bottom wells were harvested and flow cytometry was used to assess migration. For primary cell chemotaxis, 1×10^6 cells/100 μl were added to the top well, and, following a 2 hour incubation at 37° C., polystyrene beads (15.0 μm diameter, Polysciences, Warrington, Pa., USA) were added to each well to facilitate normalization of the cell count. The cells were then stained for c-kit, F4/80, and/or CD11b expression and analyzed by flow cytometry. A ratio was generated and percent input migration was calculated.

[2] = test system: mouse peritoneal mast cells; assay: chemerin internalization assay, peritoneal mast cells; format: cell-based; conditions: 10 nM His8-tagged serum form chemerin
Procedure: The primary cells were also stained with F4/80 and c-kit mAbs. Secondary anti-His6 PE was added to the cells and incubated for 30 minutes on ice. […] The cells were incubated for 5 minutes on ice with either PBS or acid wash buffer (0.2 M acetic acid, 0.5 M NaCl), and then analyzed by flow cytometry. Mast cells were identified by gating on SSC^high F4/80^− c-kit^+ cells.

FcRεI = biological target: T1, FcRεI (Mus musculus, UniProt P20489); assay: IgE binding to FcRεI on peritoneal mast cells (specificity control); conditions: 1000 nM chemerin
T1 construct: endogenous in cells; host or cells: mouse peritoneal mast cells
T1 sequence (P20489 24-250): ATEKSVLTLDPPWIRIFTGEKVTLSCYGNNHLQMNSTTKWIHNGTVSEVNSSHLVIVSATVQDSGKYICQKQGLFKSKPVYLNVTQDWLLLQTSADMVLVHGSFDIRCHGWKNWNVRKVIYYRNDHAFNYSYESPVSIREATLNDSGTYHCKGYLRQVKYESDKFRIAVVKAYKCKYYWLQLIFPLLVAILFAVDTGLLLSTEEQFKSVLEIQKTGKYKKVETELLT
T1 sequence (P20490 1-235 partner): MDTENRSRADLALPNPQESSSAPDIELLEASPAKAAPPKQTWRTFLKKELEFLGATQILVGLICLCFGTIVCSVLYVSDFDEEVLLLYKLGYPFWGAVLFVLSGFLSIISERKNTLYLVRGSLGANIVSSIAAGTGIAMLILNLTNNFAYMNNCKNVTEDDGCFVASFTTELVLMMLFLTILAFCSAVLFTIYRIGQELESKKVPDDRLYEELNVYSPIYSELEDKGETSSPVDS
T1 sequence (P20491 19-86 partner): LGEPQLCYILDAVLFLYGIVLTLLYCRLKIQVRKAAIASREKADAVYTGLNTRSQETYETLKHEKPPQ

mCCRL2 [3] = biological target: T2, mCCRL2 (Mus musculus, UniProt O35457); assay: intracellular calcium mobilization, mCCRL2/L1.2 transfectants; format: cell-based; conditions: Fluo-4; CXCL12 acts via endogenous CXCR4
T2 construct: The coding regions of mCCRL2, huCCRL2, mCRTH2, and huCCR10 were amplified from genomic DNA; expressed in transfected cells
T2 sequence (O35457 1-360): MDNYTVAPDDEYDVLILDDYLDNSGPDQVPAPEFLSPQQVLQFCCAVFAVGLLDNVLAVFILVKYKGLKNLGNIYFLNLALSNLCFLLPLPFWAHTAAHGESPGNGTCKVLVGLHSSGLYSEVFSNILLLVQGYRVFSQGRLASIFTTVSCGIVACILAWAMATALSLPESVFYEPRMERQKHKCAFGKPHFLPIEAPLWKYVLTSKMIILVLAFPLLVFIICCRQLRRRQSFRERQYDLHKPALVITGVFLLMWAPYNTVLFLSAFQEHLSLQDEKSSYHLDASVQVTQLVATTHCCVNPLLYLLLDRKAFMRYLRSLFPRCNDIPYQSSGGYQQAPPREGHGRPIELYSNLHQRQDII
Procedure: Chemoattractant-stimulated Ca^2+-mobilization was performed following Alliance for Cell Signaling protocol ID PP00000210. Cells (3×10^6/mL) were loaded with 4 μM Fluo4-AM and 0.16% Pluronic acid F-127 (Molecular Probes) in modified Iscove's medium (Iscove's medium with 1% heat inactivated bovine calf serum and 2 mM L-glutamine, Invitrogen) for 30 minutes at 37° C. The samples were mixed every 10 minutes during loading, washed once, resuspended at up to 2×10^6/mL in the same buffer, and allowed to rest in the dark for 30 minutes at room temperature. Chemoattractant-stimulated change in Ca^2+-sensitive fluorescence of Fluo-4 was measured over real-time with a FACsScan flow cytometer and CellQuest software (BD Biosciences) at room temperature under constant stirring (500 rpm). Fluorescent data were acquired continuously up to 1024 seconds at 1-second intervals. The samples were analyzed for 45 seconds to establish basal state, removed from the nozzle to add the stimuli, and then returned to the nozzle. Mean channel fluorescence over time was analyzed with FlowJo (TreeStar, Ashland, Oreg., USA) software. […] 500 μl of these chemerin-loaded cells were added to mCMKLR1/L1.2 cells loaded with Fluo4-AM, and calcium mobilization was evaluated.

mCCRL2 [4] = biological target: T2, mCCRL2; assay: in vitro transwell chemotaxis, mCCRL2/L1.2 transfectants; format: cell-based
Procedure: as §1

huCCRL2 = biological target: T3, huCCRL2 (Homo sapiens, UniProt O00421); assay: receptor internalization assay, huCCRL2-HA L1.2; format: cell-based; conditions: 100 nM chemerin, 15 min
T3 construct: The coding regions of mCCRL2, huCCRL2, mCRTH2, and huCCR10 were amplified from genomic DNA; expressed in transfected cells
T3 sequence (O00421 1-344): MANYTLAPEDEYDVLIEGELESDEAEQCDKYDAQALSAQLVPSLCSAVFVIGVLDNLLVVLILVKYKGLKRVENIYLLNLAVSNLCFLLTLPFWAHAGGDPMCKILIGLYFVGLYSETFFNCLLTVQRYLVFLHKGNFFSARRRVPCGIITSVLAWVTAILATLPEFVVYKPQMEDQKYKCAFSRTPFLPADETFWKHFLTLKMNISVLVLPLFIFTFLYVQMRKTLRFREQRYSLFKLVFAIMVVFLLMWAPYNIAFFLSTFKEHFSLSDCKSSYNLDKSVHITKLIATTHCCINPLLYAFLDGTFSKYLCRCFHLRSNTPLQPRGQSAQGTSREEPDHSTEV
Procedure: The cells were then washed with 200 μl PBS and stained with mouse anti-HA (Covance, Inc) or mIgG1 isotype control, followed by staining with secondary anti-mouse IgG1 PE, fixed, and analyzed by flow cytometry.

chemerin: protein ligand for signaling receptor CMKLR1; serum form human chemerin expressed in baculovirus-infected insect cells, His8-tag removed
transwell migration [1]: failed to migrate | chemerin internalization (acid wash) [2]: did not internalize | binding of IgE to FcRεI (FcRεI): unaffected | intracellular calcium mobilization (mCCRL2 [3]): failed to trigger | synergy of CCL2 and chemerin in transwell migration (mCCRL2 [4]; CCL2 with chemerin): did not synergize | transwell migration (mCCRL2 [4]; range of doses, CXCL12 and CCL19 act via endogenous CXCR4 and CCR7): neither human nor mouse CCRL2-HA/L1.2 transfectants migrated | ligand-induced receptor internalization (huCCRL2): failed to internalize
